Experimental findings from patent US20240174740A1 (EYEPOINT PHARMACEUTICALS, published 2024) are described below.

The target of assay [1] is T1, poly-histidine tagged HPTP-β extracellular domain (ECD) 1/2 (human, UniProt P23467 23-730, limits assumed).
T1 construct: domain: extracellular domain (ECD) 1/2; Captured on the Biacore chip through goat anti-His antibody; also called His-tagged ligand HPTP-β 1/2 ECD; not shown: poly-histidine tag
T1 sequence (looked up): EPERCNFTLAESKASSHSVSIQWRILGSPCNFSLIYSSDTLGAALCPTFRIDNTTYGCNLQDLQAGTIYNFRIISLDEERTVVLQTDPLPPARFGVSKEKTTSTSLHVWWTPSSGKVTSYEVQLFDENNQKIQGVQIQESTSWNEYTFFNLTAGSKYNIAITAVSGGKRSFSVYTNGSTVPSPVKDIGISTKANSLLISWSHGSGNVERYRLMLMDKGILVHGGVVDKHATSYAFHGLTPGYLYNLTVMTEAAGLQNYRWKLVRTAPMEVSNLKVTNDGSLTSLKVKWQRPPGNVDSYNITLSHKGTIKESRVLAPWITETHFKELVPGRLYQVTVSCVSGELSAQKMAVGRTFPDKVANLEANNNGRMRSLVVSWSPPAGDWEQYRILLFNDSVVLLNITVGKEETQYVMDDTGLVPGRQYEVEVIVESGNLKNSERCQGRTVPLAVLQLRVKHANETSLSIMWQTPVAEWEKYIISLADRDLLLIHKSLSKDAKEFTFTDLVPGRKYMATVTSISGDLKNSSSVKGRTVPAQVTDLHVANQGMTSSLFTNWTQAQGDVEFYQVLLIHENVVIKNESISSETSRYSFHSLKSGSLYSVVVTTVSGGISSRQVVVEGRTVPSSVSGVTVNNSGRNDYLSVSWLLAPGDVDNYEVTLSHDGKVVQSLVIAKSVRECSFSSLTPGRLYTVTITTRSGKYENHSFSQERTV
The experiment in a line: Biacore SPR, scouting at 10 nM analyte; His-tagged HPTP-β 1/2 ECD captured by anti-His, antibody as analyte. The protocol:
(§1) The assay buffer contained 10 mM HEPES buffer (pH 7.4), 150 mM NaCl, 3 mM EDTA, and 0.05% P20 (polyoxyethylenesorbitan). […] The conjugation buffer contained 10 mM sodium acetate buffer (pH 5). A flow rate of 5 μL/minute was used for capturing ligand. A flow rate of 30 μL/minute was used for kinetic analysis.
(§2) For analysis of binding of antibodies to HPTP-β, poly-histidine tagged HPTP-β extracellular domain (ECD) 1/2 was immobilized on a chip surface via anti-His antibodies. Goat anti-His antibody was first immobilized on the surface of the chip by direct immobilization using EDC/NHS (N-ethyl-N′-(3-dimethyl aminopropyl carbodiimide)/N-hydroxy succinamide) coupling chemistry on flow cell 2 of the CM5 (Carboxymethylated dextran coated) chip. Unoccupied sites were blocked with 1M ethanolamine. The His-tagged ligand HPTP-β 1/2 ECD was captured at a response unit (RU) of 50. The analyte (antibody) was flowed over the chip at a single analyte concentration at a time. The binding of analyte to the ligand was monitored in real time to obtain on (kₐ) and off (kd) rates. The equilibrium constant (KD) was calculated from the observed kₐ and kd.
(§3) Chi square analysis was carried out between the actual sensorgram and the sensorgram generated from the BIAnalysis software to confirm the accuracy of the analysis; values of 1-2 were considered accurate and below 1 highly accurate.
(In SPR one partner is held on a chip, and binding of the other changes the refractive index at the surface.)

The target in assay [2] is T1, poly-histidine tagged HPTP-β …. The experiment in a line: Biacore SPR, full kinetics at 0-10 nM analyte; His-tagged HPTP-β 1/2 ECD captured by anti-His, antibody as analyte. As for the experimental part:
as §1, §2
Chi square analysis was carried out between the actual sensorgram and the sensorgram generated from the BNAnalysis software to confirm the accuracy of the analysis; values of 1-2 were considered accurate and below 1 highly accurate.

Another assay addresses T2, VEGF (UniProt P15692-4 27-191, limits assumed).
T2 construct: also called vascular endothelial growth factor
Kind of assay: Biacore SPR, scouting; antibody immobilised on CM5 chip, VEGF as analyte. As for the experimental part: For analysis of binding of the antibodies to VEGF, the antibodies were immobilized on the surface of the chip by direct immobilization using EDC/NHS coupling chemistry on flow cell 2 of the CM5 chip. Unoccupied sites were blocked with 1M ethanolamine. The analyte (VEGF) was flowed over the chip at a single analyte concentration at a time. The binding of analyte to the ligand was monitored in real time to obtain on (kₐ) and off (kd) rates. The equilibrium constant (KD) was calculated from the observed kₐ and kd.
as §3

T2 sequence (P15692 other isoform, or with tags, fused parts or gaps limits assumed): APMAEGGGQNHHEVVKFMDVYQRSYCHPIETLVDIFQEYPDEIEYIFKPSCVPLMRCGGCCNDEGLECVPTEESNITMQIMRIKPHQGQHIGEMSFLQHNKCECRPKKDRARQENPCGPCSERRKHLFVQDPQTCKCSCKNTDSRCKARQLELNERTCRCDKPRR

B1: HC2:LC1 (antibody, human IgG4 S228P, kappa, V domains shown)
VH: EVQLVESGGGLVQPGGSLRLSCAASGFTFNANAMNWVRQAPGKGLEWVGRIRTKSNNYATYYAGSVKDRFTISRDDSKNSLYLQMNSLKTEDTAVYYCVRDYYGSSAWITYWGQGTLVTVSS
VL: DVVMTQSPSFLSASVGDRVTITCKASQHVGTAVAWYQQRPGKAPKLLIYWASTRHTGVPSRFSGSGSGTEFTLTISSLQPEDFATYFCQQYSSYPFTFGGGTKLEIKR
notes: Human IgG4 (S228P) heavy chain HC2 (VH2) and human kappa light chain LC1 (VL1); also called humanized monoclonal antibody specific for HPTP-β
For B1, the Kd (in general, the equilibrium constant for the complex coming apart) stood at 0.0732 nM in assay [1] and 0.121 nM in assay [2]. The binding result with VEGF is listed as “no binding (tested: 10 nM of analyte)”.
